biological target: FRMPD2_2, Q68DX3; test: holdup assay; parameters: key: below the threshold = too weak to quantify, mostly under pKd 3.1 to 4; settings: plain residues with an end cap or a label only (N-terminal biotin on a linker: ado-ado)
Sequence (Q68DX3 944-1038): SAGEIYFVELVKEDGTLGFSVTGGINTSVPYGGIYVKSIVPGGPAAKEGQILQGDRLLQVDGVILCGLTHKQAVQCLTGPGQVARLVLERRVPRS

| Binder | pKd |
| --- | --- |
| RDPPAEWTRV [PTPN18, Q99952] | 4 |

biological target: DLG5_1, Q8TDM6; test: holdup assay; parameters: key: below the threshold = too weak to quantify, mostly under pKd 3.1 to 4; settings: plain residues with an end cap or a label only (N-terminal biotin on a linker: ado-ado)
Sequence (Q8TDM6 617-713): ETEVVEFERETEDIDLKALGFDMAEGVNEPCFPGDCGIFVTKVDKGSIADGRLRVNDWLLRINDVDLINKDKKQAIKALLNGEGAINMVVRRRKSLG

| Binder | pKd |
| --- | --- |
| RDPPAEWTRV [PTPN18, Q99952] | below the threshold |

biological target: MAGI2_2, Q86UL8; test: holdup assay; parameters: key: below the threshold = too weak to quantify, mostly under pKd 3.1 to 4; settings: plain residues with an end cap or a label only (N-terminal biotin on a linker: ado-ado)
Sequence (Q86UL8 410-522): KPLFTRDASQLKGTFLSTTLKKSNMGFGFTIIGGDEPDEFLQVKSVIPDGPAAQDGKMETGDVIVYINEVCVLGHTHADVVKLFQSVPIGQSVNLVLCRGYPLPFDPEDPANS

| Binder | pKd |
| --- | --- |
| RDPPAEWTRV [PTPN18, Q99952] | 4.04 |

biological target: PICK1, Q9NRD5; test: holdup assay; parameters: key: below the threshold = too weak to quantify, mostly under pKd 3.1 to 4; settings: plain residues with an end cap or a label only (N-terminal biotin on a linker: ado-ado)
Sequence (Q9NRD5 17-115): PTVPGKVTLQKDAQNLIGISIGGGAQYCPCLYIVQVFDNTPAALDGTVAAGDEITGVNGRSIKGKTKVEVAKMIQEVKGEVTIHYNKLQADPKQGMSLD

| Binder | pKd |
| --- | --- |
| RDPPAEWTRV [PTPN18, Q99952] | below the threshold |

biological target: Inadl_9, Q8NI35; test: holdup assay; parameters: key: below the threshold = too weak to quantify, mostly under pKd 3.1 to 4; settings: plain residues with an end cap or a label only (N-terminal biotin on a linker: ado-ado)
Sequence (Q8NI35 1530-1615): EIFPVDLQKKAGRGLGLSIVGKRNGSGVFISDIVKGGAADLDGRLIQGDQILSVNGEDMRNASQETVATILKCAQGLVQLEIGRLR

| Binder | pKd |
| --- | --- |
| RDPPAEWTRV [PTPN18, Q99952] | 3.66 |

biological target: Inadl_8, Q8NI35; test: holdup assay; parameters: key: below the threshold = too weak to quantify, mostly under pKd 3.1 to 4; settings: plain residues with an end cap or a label only (N-terminal biotin on a linker: ado-ado)
Sequence (Q8NI35 1425-1530): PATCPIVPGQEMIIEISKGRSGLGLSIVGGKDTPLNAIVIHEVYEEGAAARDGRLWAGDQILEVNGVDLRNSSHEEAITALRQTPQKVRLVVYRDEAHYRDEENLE

| Binder | pKd |
| --- | --- |
| RDPPAEWTRV [PTPN18, Q99952] | 4.2 |

biological target: T1, APBA1_2, Q02410; test: holdup assay; parameters: key: below the threshold = too weak to quantify, mostly under pKd 3.1 to 4; settings: plain residues with an end cap or a label only (N-terminal biotin on a linker: ado-ado)
T1 sequence (Q02410 742-832, limits assumed, looked up): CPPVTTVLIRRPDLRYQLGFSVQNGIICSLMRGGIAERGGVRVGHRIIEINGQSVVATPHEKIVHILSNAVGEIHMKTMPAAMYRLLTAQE

| Binder | pKd |
| --- | --- |
| RDPPAEWTRV [PTPN18, Q99952] | 4.25 |

biological target: T2, GRIP1_2, Q9Y3R0; test: holdup assay; parameters: key: below the threshold = too weak to quantify, mostly under pKd 3.1 to 4; settings: plain residues with an end cap or a label only (N-terminal biotin on a linker: ado-ado)
T2 sequence (Q9Y3R0 145-248, limits assumed, looked up): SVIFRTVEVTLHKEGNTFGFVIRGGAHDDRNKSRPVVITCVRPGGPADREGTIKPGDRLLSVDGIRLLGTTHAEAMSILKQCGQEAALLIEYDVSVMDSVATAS

| Binder | pKd |
| --- | --- |
| RDPPAEWTRV [PTPN18, Q99952] | below the threshold |

biological target: GOPC, Q9HD26; test: holdup assay; parameters: key: below the threshold = too weak to quantify, mostly under pKd 3.1 to 4; settings: plain residues with an end cap or a label only (N-terminal biotin on a linker: ado-ado)

| Binder | pKd |
| --- | --- |
| RDPPAEWTRV [PTPN18, Q99952] | 4.3 |

biological target: T3, PCLO, Q9Y6V0; test: holdup assay; parameters: key: below the threshold = too weak to quantify, mostly under pKd 3.1 to 4; settings: plain residues with an end cap or a label only (N-terminal biotin on a linker: ado-ado)
T3 sequence (Q9Y6V0 4491-4600, limits assumed, looked up): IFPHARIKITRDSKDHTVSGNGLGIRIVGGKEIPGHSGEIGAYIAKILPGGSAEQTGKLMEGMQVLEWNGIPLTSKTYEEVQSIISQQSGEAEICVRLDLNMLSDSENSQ

| Binder | pKd |
| --- | --- |
| RDPPAEWTRV [PTPN18, Q99952] | below the threshold |

biological target: GRIP2_3, Q9C0E4; test: holdup assay; parameters: key: below the threshold = too weak to quantify, mostly under pKd 3.1 to 4; settings: plain residues with an end cap or a label only (N-terminal biotin on a linker: ado-ado)
Sequence (Q9C0E4 238-339): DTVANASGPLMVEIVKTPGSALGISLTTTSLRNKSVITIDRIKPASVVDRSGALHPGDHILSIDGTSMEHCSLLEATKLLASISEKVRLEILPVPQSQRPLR

| Binder | pKd |
| --- | --- |
| RDPPAEWTRV [PTPN18, Q99952] | below the threshold |

biological target: ARHGEF12, Q9NZN5-2; test: holdup assay; parameters: key: below the threshold = too weak to quantify, mostly under pKd 3.1 to 4; settings: plain residues with an end cap or a label only (N-terminal biotin on a linker: ado-ado)
Sequence (Q9NZN5 other isoform, or with tags, fused parts or gaps): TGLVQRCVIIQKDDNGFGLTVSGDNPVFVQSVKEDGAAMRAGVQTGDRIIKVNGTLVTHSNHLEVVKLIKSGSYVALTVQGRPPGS

| Binder | pKd |
| --- | --- |
| RDPPAEWTRV [PTPN18, Q99952] | 3.88 |

biological target: T4, GRIP1_3, Q9Y3R0; test: holdup assay; parameters: key: below the threshold = too weak to quantify, mostly under pKd 3.1 to 4; settings: plain residues with an end cap or a label only (N-terminal biotin on a linker: ado-ado)
T4 sequence (Q9Y3R0 247-346, limits assumed, looked up): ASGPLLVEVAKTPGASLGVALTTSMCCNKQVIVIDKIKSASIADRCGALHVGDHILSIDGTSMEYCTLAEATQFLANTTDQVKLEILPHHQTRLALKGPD

| Binder | pKd |
| --- | --- |
| RDPPAEWTRV [PTPN18, Q99952] | below the threshold |

biological target: PDZRN4_1, Q6ZMN7; test: holdup assay; parameters: key: below the threshold = too weak to quantify, mostly under pKd 3.1 to 4; settings: plain residues with an end cap or a label only (N-terminal biotin on a linker: ado-ado)
Sequence (Q6ZMN7 213-318): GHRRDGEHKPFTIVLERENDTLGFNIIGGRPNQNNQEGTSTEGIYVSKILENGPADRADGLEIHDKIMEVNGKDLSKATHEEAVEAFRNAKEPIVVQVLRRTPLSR

| Binder | pKd |
| --- | --- |
| RDPPAEWTRV [PTPN18, Q99952] | below the threshold |

biological target: T5, HTRA4, P83105; test: holdup assay; parameters: key: below the threshold = too weak to quantify, mostly under pKd 3.1 to 4; settings: plain residues with an end cap or a label only (N-terminal biotin on a linker: ado-ado)
T5 sequence (P83105 378-476, limits assumed, looked up): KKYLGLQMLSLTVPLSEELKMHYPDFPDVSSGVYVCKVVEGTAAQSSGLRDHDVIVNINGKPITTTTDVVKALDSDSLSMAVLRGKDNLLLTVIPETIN

| Binder | pKd |
| --- | --- |
| RDPPAEWTRV [PTPN18, Q99952] | 4.01 |

biological target: NHERF2_2, Q15599; test: holdup assay; parameters: key: below the threshold = too weak to quantify, mostly under pKd 3.1 to 4; settings: plain residues with an end cap or a label only (N-terminal biotin on a linker: ado-ado)
Sequence (Q15599 142-238): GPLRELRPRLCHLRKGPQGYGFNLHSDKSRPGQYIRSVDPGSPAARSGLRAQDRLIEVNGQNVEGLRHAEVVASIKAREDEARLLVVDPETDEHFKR

| Binder | pKd |
| --- | --- |
| RDPPAEWTRV [PTPN18, Q99952] | 4.45 |

biological target: Inadl_2, Q8NI35; test: holdup assay; parameters: key: below the threshold = too weak to quantify, mostly under pKd 3.1 to 4; settings: plain residues with an end cap or a label only (N-terminal biotin on a linker: ado-ado)
Sequence (Q8NI35 238-335): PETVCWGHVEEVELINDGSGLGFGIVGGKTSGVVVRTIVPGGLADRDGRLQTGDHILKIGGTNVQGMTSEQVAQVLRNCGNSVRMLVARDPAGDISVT

| Binder | pKd |
| --- | --- |
| RDPPAEWTRV [PTPN18, Q99952] | below the threshold |

biological target: NOS1, P29475; test: holdup assay; parameters: key: below the threshold = too weak to quantify, mostly under pKd 3.1 to 4; settings: plain residues with an end cap or a label only (N-terminal biotin on a linker: ado-ado)
Sequence (P29475 9-101): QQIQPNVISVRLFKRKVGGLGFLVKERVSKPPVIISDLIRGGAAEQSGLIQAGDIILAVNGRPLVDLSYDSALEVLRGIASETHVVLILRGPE

| Binder | pKd |
| --- | --- |
| RDPPAEWTRV [PTPN18, Q99952] | 3.66 |

biological target: T6, APBA1_1, Q02410; test: holdup assay; parameters: key: below the threshold = too weak to quantify, mostly under pKd 3.1 to 4; settings: plain residues with an end cap or a label only (N-terminal biotin on a linker: ado-ado)
T6 sequence (Q02410 651-752, limits assumed, looked up): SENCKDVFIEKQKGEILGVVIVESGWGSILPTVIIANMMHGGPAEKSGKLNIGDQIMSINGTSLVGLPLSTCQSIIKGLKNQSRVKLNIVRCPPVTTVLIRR

| Binder | pKd |
| --- | --- |
| RDPPAEWTRV [PTPN18, Q99952] | below the threshold |

biological target: T7, GRIP1_4, Q9Y3R0; test: holdup assay; parameters: key: below the threshold = too weak to quantify, mostly under pKd 3.1 to 4; settings: plain residues with an end cap or a label only (N-terminal biotin on a linker: ado-ado)
T7 sequence (Q9Y3R0 467-571, limits assumed, looked up): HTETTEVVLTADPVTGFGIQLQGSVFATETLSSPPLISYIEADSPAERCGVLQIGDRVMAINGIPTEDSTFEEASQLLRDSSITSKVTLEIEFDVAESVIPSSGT

| Binder | pKd |
| --- | --- |
| RDPPAEWTRV [PTPN18, Q99952] | below the threshold |

biological target: T8, LRRC7, Q96NW7; test: holdup assay; parameters: key: below the threshold = too weak to quantify, mostly under pKd 3.1 to 4; settings: plain residues with an end cap or a label only (N-terminal biotin on a linker: ado-ado)
T8 sequence (Q96NW7 1440-1537, limits assumed, looked up): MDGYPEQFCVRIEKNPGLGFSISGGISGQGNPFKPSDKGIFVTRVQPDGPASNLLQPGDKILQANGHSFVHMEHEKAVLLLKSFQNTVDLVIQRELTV

| Binder | pKd |
| --- | --- |
| RDPPAEWTRV [PTPN18, Q99952] | below the threshold |

biological target: PARD3_3, Q8TEW0; test: holdup assay; parameters: key: below the threshold = too weak to quantify, mostly under pKd 3.1 to 4; settings: plain residues with an end cap or a label only (N-terminal biotin on a linker: ado-ado)
Sequence (Q8TEW0 582-685): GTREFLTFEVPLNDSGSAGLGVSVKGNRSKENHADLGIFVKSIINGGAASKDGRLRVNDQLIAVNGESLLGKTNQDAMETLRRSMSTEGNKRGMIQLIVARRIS

| Binder | pKd |
| --- | --- |
| RDPPAEWTRV [PTPN18, Q99952] | 3.54 |

biological target: T9, PARD3B_1, Q8TEW8; test: holdup assay; parameters: key: below the threshold = too weak to quantify, mostly under pKd 3.1 to 4; settings: plain residues with an end cap or a label only (N-terminal biotin on a linker: ado-ado)
T9 sequence (Q8TEW8 196-299, limits assumed, looked up): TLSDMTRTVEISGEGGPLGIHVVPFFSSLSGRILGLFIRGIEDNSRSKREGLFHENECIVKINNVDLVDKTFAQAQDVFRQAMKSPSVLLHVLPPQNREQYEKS

| Binder | pKd |
| --- | --- |
| RDPPAEWTRV [PTPN18, Q99952] | 4.03 |

biological target: T10, TIAM2, Q8IVF5; test: holdup assay; parameters: key: below the threshold = too weak to quantify, mostly under pKd 3.1 to 4; settings: plain residues with an end cap or a label only (N-terminal biotin on a linker: ado-ado)
T10 sequence (Q8IVF5 885-986, limits assumed, looked up): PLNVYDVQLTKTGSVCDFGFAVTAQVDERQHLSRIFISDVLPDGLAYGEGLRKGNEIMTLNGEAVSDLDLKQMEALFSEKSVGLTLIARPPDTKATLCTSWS

| Binder | pKd |
| --- | --- |
| RDPPAEWTRV [PTPN18, Q99952] | below the threshold |

biological target: T11, LIN7A, O14910; test: holdup assay; parameters: key: below the threshold = too weak to quantify, mostly under pKd 3.1 to 4; settings: plain residues with an end cap or a label only (N-terminal biotin on a linker: ado-ado)
T11 sequence (O14910 103-200, limits assumed, looked up): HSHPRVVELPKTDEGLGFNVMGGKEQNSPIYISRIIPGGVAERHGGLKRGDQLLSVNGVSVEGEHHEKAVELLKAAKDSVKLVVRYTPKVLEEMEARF

| Binder | pKd |
| --- | --- |
| RDPPAEWTRV [PTPN18, Q99952] | 3.58 |

biological target: DLG2_2, Q15700; test: holdup assay; parameters: key: below the threshold = too weak to quantify, mostly under pKd 3.1 to 4; settings: plain residues with an end cap or a label only (N-terminal biotin on a linker: ado-ado)
Sequence (Q15700 189-283): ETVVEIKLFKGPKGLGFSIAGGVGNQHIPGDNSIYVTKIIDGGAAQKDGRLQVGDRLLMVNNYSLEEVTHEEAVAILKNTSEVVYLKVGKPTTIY

| Binder | pKd |
| --- | --- |
| RDPPAEWTRV [PTPN18, Q99952] | 4.01 |
